Results reported in patent US20260116983A1.

Legend:
[1] = target: human uPAR displayed on the surface of MDA-MB-231 cells (human) (UniProt Q03405); assay: cell-based or functional assay
[2] = target: human uPAR (recombinant protein used in ELISA and BLI) (human) (UniProt Q03405); assay: ELISA, plate-coated human uPAR
[3] = target: human uPAR displayed on the surface of MDA-MB-231 cells (human) (UniProt Q03405); assay: flow cytometry (FACS) on MDA-MB-231 cells

Sequence of human uPAR displayed on the surface of MDA-MB-231 cells (human) (Q03405 23-305): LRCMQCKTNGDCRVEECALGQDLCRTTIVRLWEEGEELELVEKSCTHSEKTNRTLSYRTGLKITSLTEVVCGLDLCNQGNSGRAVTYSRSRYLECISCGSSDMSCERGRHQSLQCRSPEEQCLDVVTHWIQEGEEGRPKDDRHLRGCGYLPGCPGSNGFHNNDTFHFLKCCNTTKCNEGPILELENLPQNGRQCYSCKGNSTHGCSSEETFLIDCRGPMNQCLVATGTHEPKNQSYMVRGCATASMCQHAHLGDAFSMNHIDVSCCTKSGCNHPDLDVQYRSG
Sequence of human uPAR (recombinant protein used in ELISA and BLI) (human) (Q03405 23-305 limits assumed): as the sequence (Q03405 23-305) above

| Binder | ADC Cytotoxicity Max % [1] [%] | Adhesion blocking EC50 [1] [nM] | EC50 [2] [nM] | Cellular recognition Max % [3] [%] | EC50 [3] [nM] | ADCC NK-92 EC50 [1] [nM] | ADCC NK-92 Max % [1] [%] | ADCC PBMCs EC50 [1] [nM] | ADCC PBMCs Max % [1] [%] |
| --- | --- | --- | --- | --- | --- | --- | --- | --- | --- |
| 3C6 (antibody, from another filing, V domains shown) VH: QVQLQQWGAGLLKPSETLSLTCAVYGGSFSGYYWSWIRQPPGKGLEWIGEINHSGSTNYNPSLKSRVTISVDTSKNQFSLKLSSVTAADTAVYYCARGRRFGDFDYWGQGTLVTVSS VL: QPVLTQPPSVSVAPGKTARITCGGNNIGSKSVHWYQQKPGQAPVLVVYDDSDRPPGIPERFSGSNSGNTATLTISRVEAGDEADYYCQVWDSSSDHSPFGTGTKVTVLG | 1.42 | 810 | 0.28 | 971 | 292 |  |  |  |  |
| 2G10 (antibody, from another filing, V domains shown) VH: QVQLQQSGPGLVKPSQTLSLTCAISGDSVSSNSAAWNWIRQSPSRGLEWLGRTYYRSKWYNDYAVSVKSRIIINPDTSKNQFSLQLNSVTPEDTAVYYCARDPGGPLDDSFDIWGQGTMVTVSS VL: DVVMTQSPLSLPVTPGEPASISCRSSQSLLRSNGYNYLDWYLQKPGQSPQLLIYLGSIRASGVPDRFSGSGSGTDFTLRISRVEAEDVGVYYCMQALQTPFTFGQGTKLEIKR | 4.9 | 3500 | 0.26 | 2200 | 16.6 | 22.5 | 33.9 | 8.65 | 65.5 |
